Measurements reported in patent US20210380702A1 (Regeneron, published 2021).
“And” between values parts separate entries of the source, which are not always exact repeats. Equal values may be shown once. One block for each binder: values may come before it.

Key:
[1] = molecular target: T1, recombinant cynomolgus monkey PD-L1 with a C-terminal myc-myc-hexahistidine tag (cynomolgus monkey (Macaca fascicularis)); test: SPR (Biacore), mAb captured, 37C
T1 construct: also called MfPD-L1-MMH; MfPD-L1-MMH Monomer
T1 sequence (chain, as listed by the source limits assumed): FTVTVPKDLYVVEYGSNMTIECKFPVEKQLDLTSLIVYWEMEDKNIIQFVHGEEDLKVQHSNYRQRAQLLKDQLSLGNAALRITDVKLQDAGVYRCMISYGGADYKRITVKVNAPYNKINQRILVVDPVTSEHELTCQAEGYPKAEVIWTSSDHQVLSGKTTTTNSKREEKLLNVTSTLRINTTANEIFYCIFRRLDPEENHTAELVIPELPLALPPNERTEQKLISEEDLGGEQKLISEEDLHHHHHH
Protocol: (§1) Binding association and dissociation rate constants (kₐ and kd, respectively), equilibrium dissociation constants and dissociation half-lives (KD and t_{1/2}, respectively) of antigen binding to purified anti-PD-L1 monoclonal antibodies were determined using a real-time surface plasmon resonance biosensor assay on a Biacore 4000 instrument. The Biacore sensor surface was either derivatized with polyclonal rabbit anti-mouse antibody (GE, #BR-1008-38) or with monoclonal mouse anti-human Fc antibody (GE, #BR-1008-39) to capture approximately 200-300 RUs of anti-PD-L1 monoclonal antibodies, expressed with either a mouse Fc or with human Fc, respectively. […] Different concentrations of PD-L1 reagents were injected over the anti-PD-L1 monoclonal antibody captured surface at a flow rate of 30 μL/min. The binding of the PD-L1 reagents to the captured monoclonal antibodies was monitored for 3 to 4 minutes while the dissociation of antibody bound PD-L1 reagents was monitored for 10 minutes in HBST running buffer (0.01 M HEPES pH 7.4, 0.15 M NaCl, 3 mM EDTA, 0.05% v/v Surfactant tween-20). Experiments were performed at either 25° C. or 37° C. Kinetic association (kₐ) and dissociation (kd) rate constants were determined by processing and fitting the data to a 1:1 binding model using Scrubber 2.0c curve fitting software. Binding dissociation equilibrium constants (KD) and dissociative half-lives (t_{1/2}) were then calculated from the kinetic rate constants as: KD (M)=kd/kₐ and t_{1/2} (min)=[In2/(60*kd)].

[2] = molecular target: T2, Human PD-L1 Dimer (human, UniProt Q9NZQ7 19-239); test: SPR (Biacore), mAb captured, 37C
T2 construct: also called hPD-L1 dimer; hPD-L1-hFc
T2 sequence (Q9NZQ7 19-239): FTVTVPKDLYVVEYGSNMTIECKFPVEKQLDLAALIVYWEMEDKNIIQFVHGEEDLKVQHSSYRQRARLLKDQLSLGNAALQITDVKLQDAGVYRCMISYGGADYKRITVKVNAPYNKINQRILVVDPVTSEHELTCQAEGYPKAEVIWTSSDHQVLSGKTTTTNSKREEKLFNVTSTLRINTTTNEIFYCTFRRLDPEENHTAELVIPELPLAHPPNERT
Protocol: as §1

[3] = molecular target: T3, recombinant human PD-L1 (amino acids 19-239 of NP_054862.1) with a C-terminal myc-myc-hexahistidine tag (human); test: SPR (Biacore), mAb captured, 37C
T3 construct: also called hPD-L1-MMH; hPD-L1-MMH Monomer
T3 sequence (chain, as listed by the source limits assumed): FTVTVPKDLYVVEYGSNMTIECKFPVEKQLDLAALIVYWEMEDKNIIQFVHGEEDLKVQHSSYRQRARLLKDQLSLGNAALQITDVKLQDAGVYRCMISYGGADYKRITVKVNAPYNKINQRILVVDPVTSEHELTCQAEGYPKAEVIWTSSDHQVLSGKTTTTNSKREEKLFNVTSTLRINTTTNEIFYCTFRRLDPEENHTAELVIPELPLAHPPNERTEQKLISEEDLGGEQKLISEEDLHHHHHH
Protocol: as §1

[4] = molecular target: T1, recombinant cynomolgus monkey PD-L1 …; test: SPR (Biacore), mAb captured, 25C
Protocol: as §1

[5] = molecular target: T4, recombinant cynomolgus monkey PD-L1 with a C-terminal mouse IgG2a Fc tag (cynomolgus monkey (Macaca fascicularis)); test: SPR (Biacore), mAb captured, 25C
T4 construct: also called MfPD-L1-mFc; monkey PD-L1-mFc
T4 sequence (chain, as listed by the source limits assumed): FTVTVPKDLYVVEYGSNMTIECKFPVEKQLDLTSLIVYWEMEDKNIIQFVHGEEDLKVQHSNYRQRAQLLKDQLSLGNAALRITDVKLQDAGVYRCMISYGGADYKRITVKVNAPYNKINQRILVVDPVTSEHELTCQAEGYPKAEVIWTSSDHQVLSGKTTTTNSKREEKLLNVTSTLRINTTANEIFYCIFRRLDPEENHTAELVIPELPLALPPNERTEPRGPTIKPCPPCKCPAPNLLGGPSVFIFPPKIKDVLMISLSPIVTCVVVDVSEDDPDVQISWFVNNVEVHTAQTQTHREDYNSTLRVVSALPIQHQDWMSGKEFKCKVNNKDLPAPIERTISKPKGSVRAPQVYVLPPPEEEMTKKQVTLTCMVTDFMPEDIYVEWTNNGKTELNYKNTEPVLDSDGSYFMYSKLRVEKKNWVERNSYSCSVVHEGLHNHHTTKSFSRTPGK
Protocol: as §1

[6] = molecular target: T2, Human PD-L1 Dimer; test: SPR (Biacore), mAb captured, 25C
Protocol: as §1

[7] = molecular target: T5, recombinant cynomolgus monkey PD-L1 expressed with a C-terminal mouse IgG2a Fc tag (cynomolgus monkey); test: SPR (Biacore), mAb captured, 37C
T5 construct: also called MfPD-L1-mFc; monkey PD-L1-mFc
Protocol: as §1

[8] = molecular target: full length human PD-L1 (amino acids 1 to 290 of NP_054862.1) on transfected cells (human, UniProt Q9NZQ7 19-290); test: cell-based or functional assay
Sequence of full length human PD-L1 (amino acids 1 to 290 of NP_054862.1) on transfected cells (Q9NZQ7 19-290 limits assumed): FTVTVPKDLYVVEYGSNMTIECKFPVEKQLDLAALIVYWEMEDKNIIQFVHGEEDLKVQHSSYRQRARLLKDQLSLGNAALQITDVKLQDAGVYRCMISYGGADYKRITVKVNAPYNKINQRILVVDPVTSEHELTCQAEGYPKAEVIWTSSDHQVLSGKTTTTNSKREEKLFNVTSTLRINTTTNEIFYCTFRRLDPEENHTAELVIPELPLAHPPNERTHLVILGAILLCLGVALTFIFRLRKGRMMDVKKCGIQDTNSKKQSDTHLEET

Kd [1]: 0.566 nM | koff [1]: 0.000633 s⁻¹ | kon [1]: 1.12e+06 M⁻¹ s⁻¹ | t1/2 [1]: 18 min | Kd [2]: 0.0208 nM | koff [2]: 6.96e-05 s⁻¹ | kon [2]: 3.34e+06 M⁻¹ s⁻¹ | t1/2 [2]: 166 min | Kd [3]: 0.417 nM | koff [3]: 0.000563 s⁻¹ | kon [3]: 1.35e+06 M⁻¹ s⁻¹ | t1/2 [3]: 21 min | Kd [4]: 0.412 nM | koff [4]: 0.000312 s⁻¹ | kon [4]: 757000 M⁻¹ s⁻¹ | t1/2 [4]: 37 min | Kd [5]: 0.0587 nM and 0.0462 nM | koff [5]: 7.75e-05 s⁻¹ and 5.8e-05 s⁻¹ | kon [5]: 1.32e+06 M⁻¹ s⁻¹ and 1.25e+06 M⁻¹ s⁻¹ | t1/2 [5]: 149 min and 199 min | Kd [6]: 0.0437 nM | koff [6]: 0.000106 s⁻¹ | kon [6]: 2.42e+06 M⁻¹ s⁻¹ | t1/2 [6]: 109 min
B1: H1H9364P2 (antibody, human IgG1, V domains shown)
VH: EVQLVESGGGLVQPGRSLRLSCAASGFTFDDYALHWVRQAPGKGLEWVSGISWTGGTIDYADSVKGRFTISRDNAKNSLYLQMSSLRTEDTAIYYCTRDIRGNWKYGGWFDPWGQGTLVTVSS
VL: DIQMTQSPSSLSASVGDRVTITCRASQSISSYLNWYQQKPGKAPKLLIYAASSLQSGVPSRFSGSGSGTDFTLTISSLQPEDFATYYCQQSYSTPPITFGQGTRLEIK

Kd [1]: 48.9 nM | koff [1]: 0.157 s⁻¹ | kon [1]: 3.2e+06 M⁻¹ s⁻¹ | t1/2 [1]: 0.07 min | Kd [2]: 0.0639 nM | koff [2]: 0.000392 s⁻¹ | kon [2]: 6.12e+06 M⁻¹ s⁻¹ | t1/2 [2]: 29 min | Kd [3]: 39.1 nM | koff [3]: 0.137 s⁻¹ | kon [3]: 3.49e+06 M⁻¹ s⁻¹ | t1/2 [3]: 0.08 min | Kd [4]: 25.5 nM | koff [4]: 0.0604 s⁻¹ | kon [4]: 2.37e+06 M⁻¹ s⁻¹ | t1/2 [4]: 0.2 min | Kd [5]: 0.0452 nM and 0.073 nM | koff [5]: 0.000161 s⁻¹ and 0.000212 s⁻¹ | kon [5]: 3.55e+06 M⁻¹ s⁻¹ and 2.9e+06 M⁻¹ s⁻¹ | t1/2 [5]: 72 min and 55 min | Kd [6]: 0.0427 nM | koff [6]: 0.000217 s⁻¹ | kon [6]: 5.07e+06 M⁻¹ s⁻¹ | t1/2 [6]: 53 min
B2: H1H9387P2 (antibody, human IgG1, V domains shown)
VH: QVQLVQSGAEVKKPGSSVKVSCKASGGTFNTYVLSWVRQAPGQGLEWMGEIIPILGAANYAQNFQGRVTFTTDESTNTAYMDLSSLRSEDTAVYYCARDRTSGGFDPWGQGTLVTVSS
VL: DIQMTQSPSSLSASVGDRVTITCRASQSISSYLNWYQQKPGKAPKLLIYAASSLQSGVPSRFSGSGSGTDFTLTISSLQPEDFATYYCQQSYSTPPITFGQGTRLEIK

Kd [1]: 30.5 nM | koff [1]: 0.012 s⁻¹ | kon [1]: 394000 M⁻¹ s⁻¹ | t1/2 [1]: 1 min | Kd [2]: 0.237 nM | koff [2]: 0.000258 s⁻¹ | kon [2]: 1.09e+06 M⁻¹ s⁻¹ | t1/2 [2]: 45 min | Kd [3]: 33 nM | koff [3]: 0.0113 s⁻¹ | kon [3]: 344000 M⁻¹ s⁻¹ | t1/2 [3]: 1 min | Kd [4]: 12.2 nM | koff [4]: 0.00252 s⁻¹ | kon [4]: 206000 M⁻¹ s⁻¹ | t1/2 [4]: 4.6 min | Kd [5]: 0.225 nM | koff [5]: 0.000188 s⁻¹ | kon [5]: 837000 M⁻¹ s⁻¹ | t1/2 [5]: 61 min | Kd [6]: 0.245 nM | koff [6]: 0.00019 s⁻¹ | kon [6]: 776000 M⁻¹ s⁻¹ | t1/2 [6]: 61 min
B3: H1H9396P2 (antibody, human IgG1, V domains shown)
VH: QVQLVQSGAEVEKPGASVKVSCKASGYIFTHYGISWVRQAPGQGLEWVGWISPYNGYTDYAQKLQGRVTLTTDTSTTTAYMELRNLRSDDTAMYYCSRGRGPYWSFDLWGRGTLVTVSS
VL: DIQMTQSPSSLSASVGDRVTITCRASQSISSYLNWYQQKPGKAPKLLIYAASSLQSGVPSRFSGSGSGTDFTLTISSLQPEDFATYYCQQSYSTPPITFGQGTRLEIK

Kd [7]: 0.0451 nM | koff [7]: 0.000135 s⁻¹ | kon [7]: 2.99e+06 M⁻¹ s⁻¹ | t1/2 [7]: 86 min
B4: H1H8323N (antibody, V domains shown)
VH: QVQLVQSGAEVKMPGSSVRVSCKASGGIFSSSTISWVRQAPGQGLEWMGEIIPVFGTVNYAQKFQDRVIFTADESTTTAYMELSSLKSGDTAVYFCARNWGLGSFYIWGQGTMVTVSS
VL: EIVLTQSPGTLSLSPGERATLSCRASQSFNFNYLAWYQQKPGQAPRLLIYGASSRATGIPDRFSGSGSGTDFTLTINRLEPEDFGVFYCQQYESAPWTFGQGTKVEIK
notes: human IgG1 Fc form (H1H prefix) of numerical identifier 8323

Kd [1]: 189 nM | koff [1]: 0.0245 s⁻¹ | kon [1]: 130000 M⁻¹ s⁻¹ | t1/2 [1]: 0.5 min | Kd [2]: 0.278 nM | koff [2]: 0.000137 s⁻¹ | kon [2]: 492000 M⁻¹ s⁻¹ | t1/2 [2]: 84 min | Kd [3]: 107 nM | koff [3]: 0.0107 s⁻¹ | kon [3]: 99700 M⁻¹ s⁻¹ | t1/2 [3]: 1.1 min | Kd [4]: 157 nM | koff [4]: 0.0129 s⁻¹ | kon [4]: 82200 M⁻¹ s⁻¹ | t1/2 [4]: 0.9 min | Kd [5]: 0.626 nM | koff [5]: 0.000133 s⁻¹ | kon [5]: 213000 M⁻¹ s⁻¹ | t1/2 [5]: 87 min | Kd [6]: 0.663 nM | koff [6]: 0.000148 s⁻¹ | kon [6]: 223000 M⁻¹ s⁻¹ | t1/2 [6]: 78 min
B5: H1H9382P2 (antibody, human IgG1, V domains shown)
VH: EVQLVESGGGLVQPGGSLRLSCAASGFTVGTNFMNWVRQAPGKGLEWVSAIYSGGTANYADSVKGRFTISRDTSRNTLYLQMNSLRTEDTAVYYCARGGGMDVWGQGTTVTVSS
VL: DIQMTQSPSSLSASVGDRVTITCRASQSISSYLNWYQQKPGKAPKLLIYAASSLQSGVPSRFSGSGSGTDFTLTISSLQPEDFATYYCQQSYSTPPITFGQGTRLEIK

Kd [7]: 0.0333 nM | koff [7]: 9.6e-05 s⁻¹ | kon [7]: 2.89e+06 M⁻¹ s⁻¹ | t1/2 [7]: 120 min | Concentration [M] of Antibody at 125% activation [8]: 6.57e-11 M | Emax mean [%] @ 100 nM [8]: 148%
B6: H1H8314N (antibody, V domains shown)
VH: EVQLVESGGGVVRPGGSLRLSCAASGFTFDDYGMTWVRQAPGRGLEWVSGIHWHGKRTGYADSVKGRFTISRDNAKKSLYLQMNSLKGEDTALYHCVRGGMSTGDWFDPWGQGTLVIVSS
VL: DIQMTQSPSSLSASLGDRVTITCRASQSINSYLNWYQQKPGKAPKLLIYVASSLQSGVPSRFSGSGSGTEFTLTISNLQPEDFATYYCQQSYSTPPITFGQGTRLEIK
notes: human IgG1 Fc form (H1H prefix) of numerical identifier 8314

Kd [1]: 9.82 nM | koff [1]: 0.000844 s⁻¹ | kon [1]: 85900 M⁻¹ s⁻¹ | t1/2 [1]: 14 min | Kd [2]: 0.317 nM | koff [2]: 0.000145 s⁻¹ | kon [2]: 456000 M⁻¹ s⁻¹ | t1/2 [2]: 80 min | Kd [3]: 15.4 nM | koff [3]: 0.00114 s⁻¹ | kon [3]: 73900 M⁻¹ s⁻¹ | t1/2 [3]: 10 min | Kd [4]: 6.64 nM | koff [4]: 0.000305 s⁻¹ | kon [4]: 46000 M⁻¹ s⁻¹ | t1/2 [4]: 38 min | Kd [5]: 0.447 nM | koff [5]: 9.14e-05 s⁻¹ | kon [5]: 205000 M⁻¹ s⁻¹ | t1/2 [5]: 126 min | Kd [6]: 0.689 nM | koff [6]: 0.000116 s⁻¹ | kon [6]: 168000 M⁻¹ s⁻¹ | t1/2 [6]: 100 min
B7: H1H9354P2 (antibody, human IgG1, V domains shown)
VH: EVQLVESGGGLVQPGGSLRLSCEASGFTVGVNHMNWVRQAPGKGLEWVSVIFSSGRTFYGDYVKGRLTIFRQTSQNTVYLQMNSLRSEDTAIYYCARGIGGLDIWGRGTMVTVSS
VL: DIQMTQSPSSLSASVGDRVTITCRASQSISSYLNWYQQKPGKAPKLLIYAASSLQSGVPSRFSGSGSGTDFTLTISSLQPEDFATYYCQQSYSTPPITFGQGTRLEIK

Kd [1]: 121 nM | koff [1]: 0.0197 s⁻¹ | kon [1]: 164000 M⁻¹ s⁻¹ | t1/2 [1]: 0.6 min | Kd [2]: 0.297 nM | koff [2]: 0.000203 s⁻¹ | kon [2]: 682000 M⁻¹ s⁻¹ | t1/2 [2]: 57 min | Kd [3]: 197 nM | koff [3]: 0.034 s⁻¹ | kon [3]: 172000 M⁻¹ s⁻¹ | t1/2 [3]: 0.3 min | Kd [4]: 77.3 nM | koff [4]: 0.0085 s⁻¹ | kon [4]: 110000 M⁻¹ s⁻¹ | t1/2 [4]: 1.4 min | Kd [5]: 0.512 nM | koff [5]: 0.000151 s⁻¹ | kon [5]: 296000 M⁻¹ s⁻¹ | t1/2 [5]: 76 min | Kd [6]: 0.474 nM | koff [6]: 0.000237 s⁻¹ | kon [6]: 500000 M⁻¹ s⁻¹ | t1/2 [6]: 49 min
B8: H1H9345P2 (antibody, human IgG1, V domains shown)
VH: EVQLVESGGGLVQPGGSLRLSCAASGFTISTNYMNWVRQAPGKGLEWVAVIYSSGSTYYIDSVKGRFTISRLTSKNTVYLQMSSLNSEDTAVYYCARGIRGFDIWGQGTMVTVSS
VL: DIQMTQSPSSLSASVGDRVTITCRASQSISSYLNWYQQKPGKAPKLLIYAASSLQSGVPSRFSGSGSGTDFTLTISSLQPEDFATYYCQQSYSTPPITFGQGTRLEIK
